Columns and labels:
[1] = biological target: T1, Recombinant wild type human Plasminogen Activator Inhibitor type 1 (PAI-1) (human, UniProt P05121 24-402); test: SPR (BIAcore 1000), PAI-1 immobilized on CM5 chip, 25 C
T1 construct: In the yeast two-hybrid confirmation full-length human PAI-1 was cloned in pGADT7 (GAL4 prey fusion); also called recombinant wt PAI-1; rPAI-1

[2] = biological target: T2, urokinase-type plasminogen activator (uPA) (UniProt P00749 21-431, limits assumed); test: immunoprecipitation with uPA without PAI-1, Western blot for 14K GH
[3] = biological target: T1, Recombinant wild type human Plasminogen …; test: SPR (BIAcore 1000), 16K hPRL immobilized on CM5 chip, 25 C
[4] = biological target: T2, urokinase-type plasminogen activator …; test: immunoprecipitation with uPA without PAI-1, Western blot for 16K PRL
PAI-1/uPA complex = biological target: T3, PAI-1/uPA complex (human, UniProt P05121 24-402; P00749 21-431, limits assumed); test: SPR (BIAcore 1000), 16K hPRL immobilized on CM5 chip, PAI-1 pre-incubated with uPA, 25 C
T3 construct: For SPR formed by incubating PAI-1 (2 uM) and uPA (1.4 uM) for 10 min at 37 C before loading; also called uPA/PAI-1; uPA-PAI-1 complex

Row | Binder | Kd [1] [nM] | binding result [2] | Kd [3] [nM] | binding result [4] | Kd (PAI-1/uPA complex) [nM]
1 | Recombinant 14K N-terminal human growth hormone (14K hGH) (other, Produced in E. coli as in WO 98/51323; it is tied to the 14-16 kD fragments in general, not to the tested batch; also called 14K GH; r14K GH) MFPTIPLSRLFDNAMLRAHRLHQLAFDTYQEFEEAYIPKEQKYSFLQNPQTSLSFSESIPTPSNREETQQKSNLELLRISLLLIQSWLEPVQFLRSVFANSLVYGASDSNVYDLLKDLEEGIQTLMGRLEDGSP | 1000 | no binding | – | – | –
2 | Recombinant 16K N-terminal human prolactin (16K hPRL) (other, UniProt P01236 29-167, looked up, domain: 16K N-terminal fragment; also called 16K PRL; 16K prolactin) LPICPGGAARCQVTLRDLFDRAVVLSHYIHNLSSEMFSEFDKRYTHGRGFITKAINSCHTSSLATPEDKEQAQQMNQKDFLSLIVSILRSWNEPLYHLVTEVRGMQEAPEAILSKAVEIEEQTKRLLEGMELIVSQVHP | 600 | – | 580 | no binding | 150
